“And” between values parts separate entries of the source, which are not always exact repeats. Identical values can stand only once.

In the series the test system is Bacillus subtilis DB104 (SP-AmyQ fusion secretion). Kind of series: AmyQ secretion efficiency, weighted average sort bin (1 = best secretion, 10 = worst) (bin number (weighted average, 1-10)); higher = lower secretion efficiency. The method, boiled down: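 A B. subtilis DB104 library carrying amyE-integrated fusions of designed signal peptides to mature AmyQ was encapsulated at about 0.3 cells per ~65 nL alginate bead with fluorescein-starch and grown about 13 h at room temperature. Following nile red staining, occupied beads were flow-sorted as large particles into 10 equally populated bins by green/red fluorescence ratio, and the bin amplicons were Illumina-sequenced. The secretion score is the read-frequency-weighted average bin number normalised to beads per bin, leaving out low-abundance sequences.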

For MKKWMITIAMLILAGIALFVFIDPLKSHKT, the AmyQ secretion efficiency turned out to be 6.61.

Sequence MNSYINVLTMCFLGLILFVPTALADNS displayed an AmyQ secretion efficiency of 1.26.

As for MRKKRVITCVMAASLTLGSLLPAGYASAADD, the AmyQ secretion efficiency amounted to 5.09.

MKRTWNVCLTALLSVLLVAGSVVPFHAEAKKP displayed an AmyQ secretion efficiency of 1.9.

MRHKSITFILAVVVIIIIGNMIGGGGGSEATSK gave an AmyQ secretion efficiency of 6.79.

Regarding MRKKCSKCKWSTTSLLSCLSGKSAYAATS, the AmyQ secretion efficiency amounted to 7.94.

Take MKKWIYVVLVLSIAGIGGFSVHIASS: the AmyQ secretion efficiency was found to be 6.47.

In turn, MNLRKILLSSALSLGMLPSAAPVLATSS yielded an AmyQ secretion efficiency of 2.71.

As to MSKTGRYTKAVIVIAALITFNVRNASPG, the AmyQ secretion efficiency was determined as 4.05.

As to MRSYIKVLTMCFLGLILFVPTMLADNS, the AmyQ secretion efficiency is 3.1.

Take MKKGIIRFLLVSFVLFFALKKRITGVQAAPA: the AmyQ secretion efficiency was found to be 6.43.

In turn, MSTKQVMLALTAAAGLGLTALHSAPAAKAAPL registered an AmyQ secretion efficiency of 2.43.

Take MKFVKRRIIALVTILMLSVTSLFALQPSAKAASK: the AmyQ secretion efficiency was 2.32.

Sequence MLKKIALTLCPAIVGSLLFFTAPPFSASAHVS gave an AmyQ secretion efficiency of 4.02.

As for MKSKGSIMACLILFSFTITTFINTETISEFSN, the AmyQ secretion efficiency turned out to be 7.72.

Consider MKRSISRKITCLLITLLTMGGMIASPASAAGT, for which the AmyQ secretion efficiency was 2.01.

Take MKKWLKKKRKKAIAIVLFMYTKGEAKAAGM: the AmyQ secretion efficiency worked out at 7.14.

On to MFKKHTISLLIIFLLASAVLAKPIEPHTV, for which the AmyQ secretion efficiency turned out to be 7.19.

MKQGKFSVFLILLLMLTLVVAPKEKAEAAEE gave an AmyQ secretion efficiency of 2.62.

In turn, MKSKWMSGLLLVAVGFSFTQVMVHADEE gave an AmyQ secretion efficiency of 6.6.

As to MRKRKKLSVAVAASFMSLSISLPGVQAAEG, the AmyQ secretion efficiency was found to be 1.73.

MKKKQVMLALTAAAGLGLTALAIVSSFVHSAPAAKAAPL gave an AmyQ secretion efficiency of 5.73.

MNLRKILLSSALSLGMLVVSAAPVLATSS returned an AmyQ secretion efficiency of 1.4.

Turning to MRMLWRSLALCGLALTLAPCAQAAPK, the AmyQ secretion efficiency was found to be 2.07.

MLKKKWMVGLLAGCLAAGGFSYNGFATEN registered an AmyQ secretion efficiency of 6.08.

As for MVKKWLIQFAVMLSVLSKKRRKKASAVGV, the AmyQ secretion efficiency worked out at 7.67.

In the case of MKKVLMAFIICLSLILSVLAAPPSGAKLESV, the AmyQ secretion efficiency is 8.94.

Regarding MKKCLLFLTTIALILSLSTNCFAKNT, the AmyQ secretion efficiency was determined as 1.59.

MPYLKRVLLLLVTGLFMSLFAVTATKSAQTG registered an AmyQ secretion efficiency of 4.38.

For MTTKFTALAVFLKEHTQASLL, the AmyQ secretion efficiency worked out at 6.23.

Take MTKRYGQTKTYKGTTTTAVLAAVFYLTDEDQAAAV: the AmyQ secretion efficiency was 6.8.

Consider MMTIWIGMLAAAVLLLMVPKVSLADAA, for which the AmyQ secretion efficiency worked out at 5.79.

Consider MRKWYQYQGAGVLTSVILAFVYDKTKANEE, for which the AmyQ secretion efficiency came to 8.25.

In the case of MNKKYFVLIVCIIFTSALFPTFSSVTHAQG, the AmyQ secretion efficiency is 1.15.

For the sequence MKNMSCKLVVSVTLFFSFLTIGPLAHGQNS, the AmyQ secretion efficiency came to 2.

Consider MKKRLIGFLVLVPALIMSGITLIEANKK, for which the AmyQ secretion efficiency is 5.85 and 6.63 and 6.16.

Turning to MMIKQCVICLSLLVFGTRRKAHAEET, the AmyQ secretion efficiency amounted to 7.59.

Sequence MKRRRKPYTKKLALGAALTIAPLSFASAEEN registered an AmyQ secretion efficiency of 6.27.

Sequence MKIRKILLSSALSFGMLISAVPALTAGT returned an AmyQ secretion efficiency of 4.42.

For MKKRLIGFLVLVPALIMSGITLLEANKK, the AmyQ secretion efficiency was found to be 6.63.

In the case of MKWMCSICCAAVLLAGGAAQCEAV, the AmyQ secretion efficiency was determined as 3.23.

Turning to MRKKTKNRLISSQKSTVVISSLLFPGAAGASSK, the AmyQ secretion efficiency was 8.12.

MKLAKRVSALTPSTTLAITKKAKEL had an AmyQ secretion efficiency of 6.57.

MKRFLIGAGVAAVILSGWFIADHQTHKQEM returned an AmyQ secretion efficiency of 4.69.

As to MTKKAWFLPLVCVLLISGWLAPAASASHQTT, the AmyQ secretion efficiency was 2.01.

Take MLKRLIAPMLLSAASLAFFAMSGSAQAAAY: the AmyQ secretion efficiency turned out to be 3.75.

For MKRIRIPMTLALGAALTIAPLSFWSAEEN, the AmyQ secretion efficiency is 6.56.

With MKSKWMSRKLLVAVGFSFTQVMVHAGET, the AmyQ secretion efficiency was found to be 6.44.

As to MRKKRQVCLWILVLLLSCLSGKSAYAATS, the AmyQ secretion efficiency worked out at 2.64.

Turning to MKKGIIRFLLVSFVLFFALSTGITGAQAAPA, the AmyQ secretion efficiency is 2.21.

The sequence MTKKAWFLPLVCVLLISGWLAPAASASPQTT returned an AmyQ secretion efficiency of 2.48.

With MKTKTGFIFSAILTLSIFAPNETFAQTA, the AmyQ secretion efficiency was found to be 1.63.

As to MFKKLLLATSALTFSLSLVLPLDGHYKAQEV, the AmyQ secretion efficiency was 6.94.

Consider MLKKKWMVGLLAGCLAAGGFSYNAFWTEN, for which the AmyQ secretion efficiency is 6.56.

Regarding “MKFVKRRIIALVTILMLSVTSLFALQPSFTPSPFFTVAKAAEH”, the AmyQ secretion efficiency worked out at 2.95.

In turn, MRSYIKVLTMCFLGLILFVPTALTDNS came in with an AmyQ secretion efficiency of 5.81.

MHLIRARRRVCLAVVLIAGCRFNEDQHQAEGENT: the AmyQ secretion efficiency worked out at 6.03.

As to MKKRLIGFLVLVPALIMSGITLIESNKK, the AmyQ secretion efficiency was found to be 5.98.

Turning to MLKKIALTLCPAIVGSLLFFTVILITAPASAHVS, the AmyQ secretion efficiency turned out to be 3.87.

On to MKKAAAVLLSLGLVFKKRRRKKHVAEAKTK, for which the AmyQ secretion efficiency came to 7.39.
